One assay deals with T1, CDK4 Arg24-Cys mutant (Homo sapiens (Human), UniProt P11802 1-303).
T1 construct: Found in cells from a melanoma patient; also called mutant CDK4; Arg→Cys mutant of CDK4
Nature of the assay: immunoprecipitation from mixed Sf9 lysates.

Another assay has as its target CDK2 (human, UniProt P24941 1-298). Nature of the assay: anti-CDK2 immunoprecipitation from TGF-β arrested human keratinocytes.
The target of the next assay is T2, cdc2 (human, UniProt P06493 1-297).
T2 construct: Untagged: 35S-labelled in vitro translated, or endogenous in HaCaT human keratinocytes; also called CDK1
Nature of the assay: anti-CDC2 immunoprecipitation from TGF-β arrested human keratinocytes.

In a further assay the target is T3, GAL4db-cdc2 fusion (UniProt P04386 1-147; P06493 1-297, limits assumed).
T3 construct: Two-hybrid construct; also called GALAdb fusion construct containing cdc2
In words: yeast two-hybrid (HIS3 growth and beta-galactosidase) in YPB2. Here is the method: (§1) Transformed cells were plated with and without histidine.
(§2) After growing cells in medium selective for both plasmids (minus tryptophan and minus leucine), two colonies were picked randomly and were streaked in plates that either contained or lacked histidine.

The next assay addresses T4, GAL4db-CDK5 fusion (UniProt P04386 1-147; Q00535 1-292, limits assumed).
T4 construct: Two-hybrid construct; also called GALAdb fusion construct containing CDK5
Described as above. Here is the method:
as §1, §2

Another assay has as its target T5, GAL4db-PCNA fusion (UniProt P04386 1-147; P12004 1-261, limits assumed).
T5 construct: Two-hybrid construct; also called GALAdb fusion construct containing PCNA
Described as above. Here is the method: as §1, §2

The next assay deals with T6, GAL4db-CDK2 fusion (UniProt P04386 1-147; P24941 1-298, limits assumed).
T6 construct: Two-hybrid construct; also called GALAdb fusion construct containing CDK2
The assay is described as above. Here is the method:
as §1, §2

T1 sequence (P11802 whole entry R24C): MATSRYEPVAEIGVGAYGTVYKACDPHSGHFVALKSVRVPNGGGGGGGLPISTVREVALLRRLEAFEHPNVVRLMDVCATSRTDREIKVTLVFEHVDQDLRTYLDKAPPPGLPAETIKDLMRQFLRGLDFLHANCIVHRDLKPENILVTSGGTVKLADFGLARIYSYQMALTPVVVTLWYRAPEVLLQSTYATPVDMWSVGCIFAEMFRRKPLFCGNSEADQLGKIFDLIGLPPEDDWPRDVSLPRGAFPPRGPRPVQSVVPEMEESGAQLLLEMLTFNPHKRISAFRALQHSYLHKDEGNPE
T2 sequence (P06493 whole entry): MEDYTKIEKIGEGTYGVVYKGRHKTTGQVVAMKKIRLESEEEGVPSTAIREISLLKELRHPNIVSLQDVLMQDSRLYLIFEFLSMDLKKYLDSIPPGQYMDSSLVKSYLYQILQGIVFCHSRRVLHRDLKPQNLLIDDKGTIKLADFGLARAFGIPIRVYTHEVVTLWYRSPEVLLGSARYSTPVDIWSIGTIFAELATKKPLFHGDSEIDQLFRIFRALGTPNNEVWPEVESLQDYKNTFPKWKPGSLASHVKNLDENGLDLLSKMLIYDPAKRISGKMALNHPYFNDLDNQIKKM

B1: p15 (other)
chain: MREENKGMPSGGGSDEGLATPARGLVEKVRHSWEAGADPNGVNRFGRRAIQVMMMGSARVAELLLLHGAEPNCADPATLTRPVHDAAREGFLDTLVVLHRAGARLDVRDAWGRLPVDLAEERGHRDVAGYLRTATGD
notes: Untagged p15: endogenous in HaCaT human keratinocytes or overexpressed in Sf9 cells (lysate); also called human p15; protein of approx. 15 kDa
For the molecule B1, the binding result in the assay with CDK4 Arg24-Cys mutant, in the assay with CDK2 and in the assay with cdc2 was “no binding” throughout.

B2: GAL4ad-p16 fusion (other, not shown: large carriers)
chain: MEPAAGSSMEPSADWLATAAARGRVEEVRALLEAGALPNAPNSYGRRPIQVMMMGSARVAELLLLHGAEPNCADPATLTRPVHDAAREGFLDTLVVLHRAGARLDVRDAWGRLPVDLAEELGHRDVARYLRAAAGGTRGSNHARIDAAEGPSDIPD
notes: Two-hybrid construct in yeast YPB2; also called GALAad-p16
B2: the binding result with GAL4db-cdc2 fusion, in the assay with GAL4db-CDK5 fusion, with GAL4db-PCNA fusion and in the assay with GAL4db-CDK2 fusion was “no binding” in each case.

B3: p16 (other)
chain: MEPAAGSSMEPSADWLATAAARGRVEEVRALLEAGALPNAPNSYGRRPIQVMMMGSARVAELLLLHGAEPNCADPATLTRPVHDAAREGFLDTLVVLHRAGARLDVRDAWGRLPVDLAEELGHRDVARYLRAAAGGTRGSNHARIDAAEGPSDIPD
notes: also called human p16
Consider B3, for which the binding result with CDK4 Arg24-Cys mutant is given as “no binding”.

Source of the values: patent US20030100489A1 (COLD SPRING HARBOR LABORATORY, published 2003).
